According to patent US20200262914A1 (MIT, published 2020):
Each block holds one binder with its values, some of them ahead of it.

Legend:
[1] = molecular target: T1, human Bfl-1 (residues 1-151) (human, UniProt Q16548 1-151); experiment: competition FP vs fluoresceinated Bim BH3, solution
T1 construct: range 1-151
T1 sequence (looked up): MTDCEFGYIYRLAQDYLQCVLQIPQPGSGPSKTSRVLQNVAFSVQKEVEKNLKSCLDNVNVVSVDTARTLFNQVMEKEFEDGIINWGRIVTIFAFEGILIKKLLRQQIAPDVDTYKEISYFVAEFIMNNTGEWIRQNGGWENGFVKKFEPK
Description: (§1) We used the cell-surface experiments to select six peptides, for which we determined solution Ki values using a competition fluorescence polarization (FP) assay (FIG. 3, panel d).

[2] = molecular target: T2, human Mcl-1 (residues 172-327) (human, UniProt Q07820 172-327); experiment: as above
T2 construct: range 172-327
T2 sequence (Q07820 172-327 limits assumed): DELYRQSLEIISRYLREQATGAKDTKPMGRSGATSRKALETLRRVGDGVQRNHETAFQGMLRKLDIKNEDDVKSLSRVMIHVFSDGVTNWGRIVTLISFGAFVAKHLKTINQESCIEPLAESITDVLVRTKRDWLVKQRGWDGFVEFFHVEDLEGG
Description: as §1

[3] = molecular target: T1, human Bfl-1 (residues 1-151); experiment: competition FP, solution
Description: as §1

[4] = molecular target: T2, human Mcl-1 (residues 172-327); experiment: competition FP, solution
Description: as §1

[5] = molecular target: T1, human Bfl-1 (residues 1-151); experiment: reported affinity; yeast cell-surface measurement presumed
[6] = molecular target: T1, human Bfl-1 (residues 1-151); experiment: yeast display, sparse titration, apparent KD;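 note: designs displayed on the yeast cell surface, binding of soluble target protein measured at four concentrations spanning nanomolar to micromolar, apparent KD estimated from this sparse titration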
Protocol: We measured binding of the designs to 1, 10, 100 or 1000 nM of Bcl-xL, Mcl-1 and Bfl-1 using yeast cell-surface display.

[7] = molecular target: T3, human Bcl-xL (residues 1-209) (human, UniProt Q07817 1-209); experiment: competition FP vs fluoresceinated Bim BH3, solution
T3 construct: range 1-209
T3 sequence (Q07817 1-209 limits assumed): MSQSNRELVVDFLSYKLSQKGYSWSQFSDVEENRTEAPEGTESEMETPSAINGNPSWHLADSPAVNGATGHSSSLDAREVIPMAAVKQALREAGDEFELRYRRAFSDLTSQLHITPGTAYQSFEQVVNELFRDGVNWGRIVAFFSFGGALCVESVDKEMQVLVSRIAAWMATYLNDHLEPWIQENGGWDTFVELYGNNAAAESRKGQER
Description: as §1

[8] = molecular target: T3, human Bcl-xL (residues 1-209); experiment: solution binding assays (competition FP)

B2: F4 (peptide)
peptide: GQRVVHIAAGLRRTGDQLEAYG
Kd [5]: 14 nM | Kd [6]: < 100 nM

B4: srt.MX05 (peptide)
peptide: Ac-QWLRDVVAELARIADEFHAQYER-NH2
notes: synthetic solution peptide
Ki [7]: 20 nM | Ki [2]: 100 nM

B7: srt.X7 (peptide)
peptide: Ac-QPLIWFGAQLRRGADEFAAQRER-NH2
notes: synthetic solution peptide; also called srt.X07
fold specificity for target over off-targets [8]: > 1000 fold | Ki [7]: 3.7 nM

B8: srt.MX01 (peptide)
peptide: Ac-QWLRWVIAELIRIADEFHAQYER-NH2
notes: synthetic solution peptide
Ki [7]: 21 nM | Ki [2]: 11 nM

Second part, the binder after the results:

Ki [1]: 19 nM | Ki [2]: 5.7 nM | fold tighter Ki than to Bcl-xL [3]: > 100 fold | fold tighter Ki than to Bcl-xL [4]: > 100 fold
B1: srt.MF06 (peptide)
peptide: Ac-RRVDEIAQILRRIGDNVTTYIER-NH2
notes: synthetic solution peptide; also called MF6

Kd [5]: 3.2 nM | Kd [6]: < 100 nM
B3: F10 (peptide)
peptide: GRRVVQIAAGLRRAGDQLEKYG

Ki [1]: 6.6 nM | Ki [7]: 1000 nM | Ki [2]: 9 nM | fold tighter Ki than to Bcl-xL [3]: > 100 fold | fold tighter Ki than to Bcl-xL [4]: > 100 fold
B5: srt.MF02 (peptide)
peptide: Ac-RWIDQIAQFLRRIGDHIEKYIER-NH2
notes: synthetic solution peptide; also called MF2

fold specificity for target over off-targets [8]: > 1000 fold | Ki [7]: 1.32 nM
B6: srt.X1 (peptide)
peptide: Ac-QTLIWYGASLRRYADEFAKQRER-NH2
notes: synthetic solution peptide; also called srt.X01
